Test results taken from the supplement of paper PMC11908140.

B1: library; numbered along this chain (parent)
chain: MRKPRAAVGSGHRKQAASQEGRQKHAKNNSQAKPSACDGLARQPEEVVLQASVSSYHLFRDVAEVTAFRGSLLSWYDQEKRDLPWRRRAEDEMDLDRRAYAVWVSEVMLQQTQVATVINYYTGWMQKWPTLQDLASASLEEVNQLWAGLGYYSRGRRLQEGARKVVEELGGHMPRTAETLQQLLPGVGRYTAGAIASIAFGQATGVVDGNVARVLCRVRAIGADPSSTLVSQQLWGLAQQLVDPARPGDFNQAAMELGATVCTPQRPLCSQCPVESLCRARQRVEQEQLLASGSLSGSPDVEECAPNTGQCHLCLPPSEPWDQTLGVVNFPRKASRKPPREESSATCVLEQPGALGAQILLVQRPNSGLLAGLWEFPSVTWEPSEQLQRKALLQELQRWAGPLPATHLRHLGEVVHTFSHIKLTYQVYGLALEGQTPVTTVPPGARWLTQEEFHTAAVSTAMKKVFRVYQGQQPGTCMGSKRSQVSSPCSRKKPRMGQQVLDNFFRSHISTDAHSLNSAAQ

Variants of: B1
Test: 8OG:A repair function score (normalized; synonymous = 0, nonsense = -1) (normalized log-likelihood score); higher = more repair activity (WT-like)
Settings: with 8OG:A DNA repair reporter (GFP) in HEK-293 MUTYH KO cells
Protocol: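 Saturation mutagenesis (NNN codon scan) of the MUTYH cDNA (521-aa nuclear isoform NM_001048174.1 / NP_001041639), stably expressed under doxycycline induction in HEK-293 MUTYH knockout cells. Cells were co-transfected with an 8OG:A-bearing GFP repair reporter plus mCherry and sorted 72 h later into GFP+ and GFP− bins, three replicates per tile. The Rosace log2 enrichment (GFP+ vs GFP−) was converted per tile to a normalized function score with synonymous variants centered at 0 and nonsense variants (codons 1-471) at -1; low-abundance variants were removed.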

Variant | 8OG:A repair function score
MRKPRAAVGSGHRKQAASQEGRQKHAKNNSQAKPSACDGLARQPEEVVLQASVSSYHLFRDVAEVTAFRGSLLSWYDQEKRDLPWRRRAEDEMDLDRRAYAVWVSEVMLQQTQVATVINYYTGWMQKWPTLQNLASASLEEVNQLWAGLGYYSRGRRLQEGARKVVEELGGHMPRTAETLQQLLPGVGRYTAGAIASIAFGQATGVVDGNVARVLCRVRAIGADPSSTLVSQQLWGLAQQLVDPARPGDFNQAAMELGATVCTPQRPLCSQCPVESLCRARQRVEQEQLLASGSLSGSPDVEECAPNTGQCHLCLPPSEPWDQTLGVVNFPRKASRKPPREESSATCVLEQPGALGAQILLVQRPNSGLLAGLWEFPSVTWEPSEQLQRKALLQELQRWAGPLPATHLRHLGEVVHTFSHIKLTYQVYGLALEGQTPVTTVPPGARWLTQEEFHTAAVSTAMKKVFRVYQGQQPGTCMGSKRSQVSSPCSRKKPRMGQQVLDNFFRSHISTDAHSLNSAAQ [D133N] | 0.0132
MRKPRAAVGSGHRKQAASQEGRQKHAKNNSQAKPSACDGLARQPEEVVLQASVSSYHLFRDVAEVTAFRGSLLSWYDQEKRDLPWRRRAEDEMDLDRRAYAVWVSEVMLQQTQVATVINYYTGWMQKWPTLQRLASASLEEVNQLWAGLGYYSRGRRLQEGARKVVEELGGHMPRTAETLQQLLPGVGRYTAGAIASIAFGQATGVVDGNVARVLCRVRAIGADPSSTLVSQQLWGLAQQLVDPARPGDFNQAAMELGATVCTPQRPLCSQCPVESLCRARQRVEQEQLLASGSLSGSPDVEECAPNTGQCHLCLPPSEPWDQTLGVVNFPRKASRKPPREESSATCVLEQPGALGAQILLVQRPNSGLLAGLWEFPSVTWEPSEQLQRKALLQELQRWAGPLPATHLRHLGEVVHTFSHIKLTYQVYGLALEGQTPVTTVPPGARWLTQEEFHTAAVSTAMKKVFRVYQGQQPGTCMGSKRSQVSSPCSRKKPRMGQQVLDNFFRSHISTDAHSLNSAAQ [D133R] | -0.0865
MRKPRAAVGSGHRKQAASQEGRQKHAKNNSQAKPSACDGLARQPEEVVLQASVSSYHLFRDVAEVTAFRGSLLSWYDQEKRDLPWRRRAEDEMDLDRRAYAVWVSEVMLQQTQVATVINYYTGWMQKWPTLQMLASASLEEVNQLWAGLGYYSRGRRLQEGARKVVEELGGHMPRTAETLQQLLPGVGRYTAGAIASIAFGQATGVVDGNVARVLCRVRAIGADPSSTLVSQQLWGLAQQLVDPARPGDFNQAAMELGATVCTPQRPLCSQCPVESLCRARQRVEQEQLLASGSLSGSPDVEECAPNTGQCHLCLPPSEPWDQTLGVVNFPRKASRKPPREESSATCVLEQPGALGAQILLVQRPNSGLLAGLWEFPSVTWEPSEQLQRKALLQELQRWAGPLPATHLRHLGEVVHTFSHIKLTYQVYGLALEGQTPVTTVPPGARWLTQEEFHTAAVSTAMKKVFRVYQGQQPGTCMGSKRSQVSSPCSRKKPRMGQQVLDNFFRSHISTDAHSLNSAAQ [D133M] | 0.0651
MRKPRAAVGSGHRKQAASQEGRQKHAKNNSQAKPSACDGLARQPEEVVLQASVSSYHLFRDVAEVTAFRGSLLSWYDQEKRDLPWRRRAEDEMDLDRRAYAVWVSEVMLQQTQVATVINYYTGWMQKWPTLQQLASASLEEVNQLWAGLGYYSRGRRLQEGARKVVEELGGHMPRTAETLQQLLPGVGRYTAGAIASIAFGQATGVVDGNVARVLCRVRAIGADPSSTLVSQQLWGLAQQLVDPARPGDFNQAAMELGATVCTPQRPLCSQCPVESLCRARQRVEQEQLLASGSLSGSPDVEECAPNTGQCHLCLPPSEPWDQTLGVVNFPRKASRKPPREESSATCVLEQPGALGAQILLVQRPNSGLLAGLWEFPSVTWEPSEQLQRKALLQELQRWAGPLPATHLRHLGEVVHTFSHIKLTYQVYGLALEGQTPVTTVPPGARWLTQEEFHTAAVSTAMKKVFRVYQGQQPGTCMGSKRSQVSSPCSRKKPRMGQQVLDNFFRSHISTDAHSLNSAAQ [D133Q] | -0.164
MRKPRAAVGSGHRKQAASQEGRQKHAKNNSQAKPSACDGLARQPEEVVLQASVSSYHLFRDVAEVTAFRGSLLSWYDQEKRDLPWRRRAEDEMDLDRRAYAVWVSEVMLQQTQVATVINYYTGWMQKWPTLQYLASASLEEVNQLWAGLGYYSRGRRLQEGARKVVEELGGHMPRTAETLQQLLPGVGRYTAGAIASIAFGQATGVVDGNVARVLCRVRAIGADPSSTLVSQQLWGLAQQLVDPARPGDFNQAAMELGATVCTPQRPLCSQCPVESLCRARQRVEQEQLLASGSLSGSPDVEECAPNTGQCHLCLPPSEPWDQTLGVVNFPRKASRKPPREESSATCVLEQPGALGAQILLVQRPNSGLLAGLWEFPSVTWEPSEQLQRKALLQELQRWAGPLPATHLRHLGEVVHTFSHIKLTYQVYGLALEGQTPVTTVPPGARWLTQEEFHTAAVSTAMKKVFRVYQGQQPGTCMGSKRSQVSSPCSRKKPRMGQQVLDNFFRSHISTDAHSLNSAAQ [D133Y] | -0.727
MRKPRAAVGSGHRKQAASQEGRQKHAKNNSQAKPSACDGLARQPEEVVLQASVSSYHLFRDVAEVTAFRGSLLSWYDQEKRDLPWRRRAEDEMDLDRRAYAVWVSEVMLQQTQVATVINYYTGWMQKWPTLQKLASASLEEVNQLWAGLGYYSRGRRLQEGARKVVEELGGHMPRTAETLQQLLPGVGRYTAGAIASIAFGQATGVVDGNVARVLCRVRAIGADPSSTLVSQQLWGLAQQLVDPARPGDFNQAAMELGATVCTPQRPLCSQCPVESLCRARQRVEQEQLLASGSLSGSPDVEECAPNTGQCHLCLPPSEPWDQTLGVVNFPRKASRKPPREESSATCVLEQPGALGAQILLVQRPNSGLLAGLWEFPSVTWEPSEQLQRKALLQELQRWAGPLPATHLRHLGEVVHTFSHIKLTYQVYGLALEGQTPVTTVPPGARWLTQEEFHTAAVSTAMKKVFRVYQGQQPGTCMGSKRSQVSSPCSRKKPRMGQQVLDNFFRSHISTDAHSLNSAAQ [D133K] | -0.175
MRKPRAAVGSGHRKQAASQEGRQKHAKNNSQAKPSACDGLARQPEEVVLQASVSSYHLFRDVAEVTAFRGSLLSWYDQEKRDLPWRRRAEDEMDLDRRAYAVWVSEVMLQQTQVATVINYYTGWMQKWPTLQSLASASLEEVNQLWAGLGYYSRGRRLQEGARKVVEELGGHMPRTAETLQQLLPGVGRYTAGAIASIAFGQATGVVDGNVARVLCRVRAIGADPSSTLVSQQLWGLAQQLVDPARPGDFNQAAMELGATVCTPQRPLCSQCPVESLCRARQRVEQEQLLASGSLSGSPDVEECAPNTGQCHLCLPPSEPWDQTLGVVNFPRKASRKPPREESSATCVLEQPGALGAQILLVQRPNSGLLAGLWEFPSVTWEPSEQLQRKALLQELQRWAGPLPATHLRHLGEVVHTFSHIKLTYQVYGLALEGQTPVTTVPPGARWLTQEEFHTAAVSTAMKKVFRVYQGQQPGTCMGSKRSQVSSPCSRKKPRMGQQVLDNFFRSHISTDAHSLNSAAQ [D133S] | 0.0612
MRKPRAAVGSGHRKQAASQEGRQKHAKNNSQAKPSACDGLARQPEEVVLQASVSSYHLFRDVAEVTAFRGSLLSWYDQEKRDLPWRRRAEDEMDLDRRAYAVWVSEVMLQQTQVATVINYYTGWMQKWPTLQWLASASLEEVNQLWAGLGYYSRGRRLQEGARKVVEELGGHMPRTAETLQQLLPGVGRYTAGAIASIAFGQATGVVDGNVARVLCRVRAIGADPSSTLVSQQLWGLAQQLVDPARPGDFNQAAMELGATVCTPQRPLCSQCPVESLCRARQRVEQEQLLASGSLSGSPDVEECAPNTGQCHLCLPPSEPWDQTLGVVNFPRKASRKPPREESSATCVLEQPGALGAQILLVQRPNSGLLAGLWEFPSVTWEPSEQLQRKALLQELQRWAGPLPATHLRHLGEVVHTFSHIKLTYQVYGLALEGQTPVTTVPPGARWLTQEEFHTAAVSTAMKKVFRVYQGQQPGTCMGSKRSQVSSPCSRKKPRMGQQVLDNFFRSHISTDAHSLNSAAQ [D133W] | -0.988
MRKPRAAVGSGHRKQAASQEGRQKHAKNNSQAKPSACDGLARQPEEVVLQASVSSYHLFRDVAEVTAFRGSLLSWYDQEKRDLPWRRRAEDEMDLDRRAYAVWVSEVMLQQTQVATVINYYTGWMQKWPTLQTLASASLEEVNQLWAGLGYYSRGRRLQEGARKVVEELGGHMPRTAETLQQLLPGVGRYTAGAIASIAFGQATGVVDGNVARVLCRVRAIGADPSSTLVSQQLWGLAQQLVDPARPGDFNQAAMELGATVCTPQRPLCSQCPVESLCRARQRVEQEQLLASGSLSGSPDVEECAPNTGQCHLCLPPSEPWDQTLGVVNFPRKASRKPPREESSATCVLEQPGALGAQILLVQRPNSGLLAGLWEFPSVTWEPSEQLQRKALLQELQRWAGPLPATHLRHLGEVVHTFSHIKLTYQVYGLALEGQTPVTTVPPGARWLTQEEFHTAAVSTAMKKVFRVYQGQQPGTCMGSKRSQVSSPCSRKKPRMGQQVLDNFFRSHISTDAHSLNSAAQ [D133T] | -0.0145
MRKPRAAVGSGHRKQAASQEGRQKHAKNNSQAKPSACDGLARQPEEVVLQASVSSYHLFRDVAEVTAFRGSLLSWYDQEKRDLPWRRRAEDEMDLDRRAYAVWVSEVMLQQTQVATVINYYTGWMQKWPTLQPLASASLEEVNQLWAGLGYYSRGRRLQEGARKVVEELGGHMPRTAETLQQLLPGVGRYTAGAIASIAFGQATGVVDGNVARVLCRVRAIGADPSSTLVSQQLWGLAQQLVDPARPGDFNQAAMELGATVCTPQRPLCSQCPVESLCRARQRVEQEQLLASGSLSGSPDVEECAPNTGQCHLCLPPSEPWDQTLGVVNFPRKASRKPPREESSATCVLEQPGALGAQILLVQRPNSGLLAGLWEFPSVTWEPSEQLQRKALLQELQRWAGPLPATHLRHLGEVVHTFSHIKLTYQVYGLALEGQTPVTTVPPGARWLTQEEFHTAAVSTAMKKVFRVYQGQQPGTCMGSKRSQVSSPCSRKKPRMGQQVLDNFFRSHISTDAHSLNSAAQ [D133P] | -0.372
MRKPRAAVGSGHRKQAASQEGRQKHAKNNSQAKPSACDGLARQPEEVVLQASVSSYHLFRDVAEVTAFRGSLLSWYDQEKRDLPWRRRAEDEMDLDRRAYAVWVSEVMLQQTQVATVINYYTGWMQKWPTLQLLASASLEEVNQLWAGLGYYSRGRRLQEGARKVVEELGGHMPRTAETLQQLLPGVGRYTAGAIASIAFGQATGVVDGNVARVLCRVRAIGADPSSTLVSQQLWGLAQQLVDPARPGDFNQAAMELGATVCTPQRPLCSQCPVESLCRARQRVEQEQLLASGSLSGSPDVEECAPNTGQCHLCLPPSEPWDQTLGVVNFPRKASRKPPREESSATCVLEQPGALGAQILLVQRPNSGLLAGLWEFPSVTWEPSEQLQRKALLQELQRWAGPLPATHLRHLGEVVHTFSHIKLTYQVYGLALEGQTPVTTVPPGARWLTQEEFHTAAVSTAMKKVFRVYQGQQPGTCMGSKRSQVSSPCSRKKPRMGQQVLDNFFRSHISTDAHSLNSAAQ [D133L] | -0.0567
MRKPRAAVGSGHRKQAASQEGRQKHAKNNSQAKPSACDGLARQPEEVVLQASVSSYHLFRDVAEVTAFRGSLLSWYDQEKRDLPWRRRAEDEMDLDRRAYAVWVSEVMLQQTQVATVINYYTGWMQKWPTLQVLASASLEEVNQLWAGLGYYSRGRRLQEGARKVVEELGGHMPRTAETLQQLLPGVGRYTAGAIASIAFGQATGVVDGNVARVLCRVRAIGADPSSTLVSQQLWGLAQQLVDPARPGDFNQAAMELGATVCTPQRPLCSQCPVESLCRARQRVEQEQLLASGSLSGSPDVEECAPNTGQCHLCLPPSEPWDQTLGVVNFPRKASRKPPREESSATCVLEQPGALGAQILLVQRPNSGLLAGLWEFPSVTWEPSEQLQRKALLQELQRWAGPLPATHLRHLGEVVHTFSHIKLTYQVYGLALEGQTPVTTVPPGARWLTQEEFHTAAVSTAMKKVFRVYQGQQPGTCMGSKRSQVSSPCSRKKPRMGQQVLDNFFRSHISTDAHSLNSAAQ [D133V] | -0.0608
